In this assay the target is SARS-CoV-2 spike (S)-trimer protein (SARS-CoV-2) (UniProt P0DTC2). The assay can be described thus: SEC. A general note: In gel filtration, larger molecules generally elute earlier.

For orientation: stoichiometry N means the number of molecules, sites or subunits per partner or assembly. Take “SARS-CoV-2 spike (S)-trimer protein (from UniProt P0DTC2 16-1209) (domain or fragment)”: the stoichiometry N stood at 3.

Values taken from publication PMC12016715.
